{
  "source": "patent US20220315554A1",
  "about": "(3B PHARMACEUTICALS GMBH, published 2022)",
  "key": {"[1]": {"molecular_target": "T1, human fibroblast activation protein (FAP) on FAP-expressing human WI-38 fibroblasts (human)", "T1 sequence (chain, as listed by the source)": "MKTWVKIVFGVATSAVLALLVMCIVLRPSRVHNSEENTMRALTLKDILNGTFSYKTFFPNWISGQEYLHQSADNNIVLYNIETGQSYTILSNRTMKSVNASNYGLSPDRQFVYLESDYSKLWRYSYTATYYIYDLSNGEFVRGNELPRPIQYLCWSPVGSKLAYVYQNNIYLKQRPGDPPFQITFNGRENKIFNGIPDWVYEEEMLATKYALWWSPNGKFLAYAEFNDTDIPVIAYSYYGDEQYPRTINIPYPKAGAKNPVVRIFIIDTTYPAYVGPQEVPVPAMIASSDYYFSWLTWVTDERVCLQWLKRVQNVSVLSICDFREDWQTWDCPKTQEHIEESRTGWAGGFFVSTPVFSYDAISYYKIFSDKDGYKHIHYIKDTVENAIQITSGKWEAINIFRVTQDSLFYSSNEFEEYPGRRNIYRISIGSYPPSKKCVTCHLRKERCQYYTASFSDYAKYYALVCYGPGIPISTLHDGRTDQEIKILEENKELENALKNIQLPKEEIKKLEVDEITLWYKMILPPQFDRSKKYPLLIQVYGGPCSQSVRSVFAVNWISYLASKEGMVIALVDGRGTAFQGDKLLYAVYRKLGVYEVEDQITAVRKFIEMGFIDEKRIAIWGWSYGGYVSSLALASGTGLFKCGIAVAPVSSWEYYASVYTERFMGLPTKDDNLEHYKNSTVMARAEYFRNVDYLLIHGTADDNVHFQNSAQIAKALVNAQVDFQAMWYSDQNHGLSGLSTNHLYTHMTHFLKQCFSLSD", "assay": "competition FACS, WI-38 cells, vs Cy5-labeled compound; A: pIC50 >8.0"}, "[2]": {"molecular_target": "T1, human fibroblast activation protein …", "assay": "competition FACS, WI-38 cells, vs Cy5-labeled compound; D: pIC50 ≤6.0"}},
  "note": "Numbered stars: 1 amine (or outer) side, 2 acyl side, 3 side chain; on linkers, the order of the positions; unused ones are H or OH. Bridge positions count the residues as written; N and C are the ends. Ends that are not written are not given here. * marks the point of attachment. Ttds = 1,13-diamino-4,7,10-trioxatridecan-succinamic acid, NCCCOCCOCCOCCCNC(=O)CCC(=O)*; tMeBn(DOTA-AET) = Cys-Cys bridge (thioethers) carrying DOTA-AET; tMeBn(DOTA-PP) = Cys-Cys bridge (thioethers) carrying DOTA-PP; DOTA = O=C(O)CN1CCN(CC(=O)O)CCN(CC(=O)*)CCN(CC(=O)O)CC1; mXylylene = c1cc(C[*:1])cc(C[*:2])c1; 2Lut = Cys-Cys bridge (thioethers); 3Lut = Cys-Cys bridge (thioethers); Pentanesulfonyl = CCCCCS(=O)(=O)*; Hexanoyl = CCCCCC(=O)*",
  "data": [
    {"binder": "Hexanoyl-CPPTEFC-NH2 (linker 1-7 via tMeBn(DOTA-AET))", "note": "[Hex-[Cys(tMeBn(DOTA-AET))-Pro-Pro-Thr-Glu-Phe-Cys]-NH2]", "values": [
      {"measurement": "pIC50 Category (FACS)", "setting": "[1]", "result": "> 8", "unit": "pIC50"}
    ]},
    {"binder": "Hexanoyl-CPPTQFCD (linker 1-7 via mXylylene; not fully specified (C-terminus); printed as Hex-[Cys(3MeBn)-Pro-Pro-Thr-Gln-Phe-Cys]-Asp-Ape(DOTA))", "note": "[Hex-[Cys(3MeBn)-Pro-Pro-Thr-Gln-Phe-Cys]-Asp-Ape-NH-DOTA']", "values": [
      {"measurement": "pIC50 Category (FACS)", "setting": "[1]", "result": "> 8", "unit": "pIC50"}
    ]},
    {"binder": "Hexanoyl-CPPTQFCD-NH2 (linker 1-7 via tMeBn(DOTA-AET))", "note": "[Hex-[Cys(tMeBn(DOTA-AET))-Pro-Pro-Thr-Gln-Phe-Cys]-Asp-NH2]", "values": [
      {"measurement": "pIC50 Category (FACS)", "setting": "[1]", "result": "> 8", "unit": "pIC50"}
    ]},
    {"binder": "{DOTA-Ttds}-LCPPTEFCDHFRD-NH2 (linker 2-8 via mXylylene)", "note": "[DOTA-Ttds-Leu-[Cys(3MeBn)-Pro-Pro-Thr-Glu-Phe-Cys]-Asp-His-Phe-Arg-Asp-NH2]", "values": [
      {"measurement": "pIC50 Category (FACS)", "setting": "[1]", "result": "> 8", "unit": "pIC50"}
    ]},
    {"binder": "Hexanoyl-CPPTQFCD-NH2 (linker 1-7 via tMeBn(LuDOTA-PP); also: Lu-DOTA complex)", "note": "[Hex-[Cys(tMeBn(LuDOTA-PP))-Pro-Pro-Thr-Gln-Phe-Cys]-Asp-NH2]", "values": [
      {"measurement": "pIC50 Category (FACS)", "setting": "[1]", "result": "> 8", "unit": "pIC50"}
    ]},
    {"binder": "Hexanoyl-CPPAEFC-NH2 (linker 1-7 via mXylylene; SMILES CCCCCC(=O)N[C@H]1CSCc2cccc(c2)CSC[C@@H](C(N)=O)NC(=O)[C@H](Cc2ccccc2)NC(=O)[C@H](CCC(=O)O)NC(=O)[C@H](C)NC(=O)[C@@H]2CCCN2C(=O)[C@@H]2CCCN2C1=O)", "note": "[Hex-[Cys(3MeBn)-Pro-Pro-Ala-Glu-Phe-Cys]-NH2]", "values": [
      {"measurement": "pIC50 Category (FACS)", "setting": "[2]", "result": "≤ 6", "unit": "pIC50"}
    ]},
    {"binder": "Hexanoyl-CPPTQFCD-NH2 (linker 1-7 via tMeBn(GaDOTA-PP))", "note": "[Hex-[Cys(tMeBn(GaDOTA-PP))-Pro-Pro-Thr-Gln-Phe-Cys]-Asp-NH2]", "values": [
      {"measurement": "pIC50 Category (FACS)", "setting": "[1]", "result": "> 8", "unit": "pIC50"}
    ]},
    {"binder": "Hexanoyl-CPPTQFCD-NH2 (linker 1-7 via tMeBn(InDOTA-PP); also: In-DOTA complex)", "note": "[Hex-[Cys(tMeBn(InDOTA-PP))-Pro-Pro-Thr-Gln-Phe-Cys]-Asp-NH2]", "values": [
      {"measurement": "pIC50 Category (FACS)", "setting": "[1]", "result": "> 8", "unit": "pIC50"}
    ]},
    {"binder": "Hexanoyl-CPPTQFCD-NH2 (linker 1-7 via 2Lut)", "note": "[Hex-[Cys(2Lut)-Pro-Pro-Thr-Gln-Phe-Cys]-Asp-NH2]", "values": [
      {"measurement": "pIC50 Category (FACS)", "setting": "[1]", "result": "> 8", "unit": "pIC50"}
    ]},
    {"binder": "CPPTQFCD (N-terminal Hex (hexanoyl); Cys1-Cys7 bridged by tMeBn(DOTA-AET) (thioethers); D-Asp8 (asp); C-terminal amide)", "note": "[Hex-[Cys(tMeBn(DOTA-AET))-Pro-Pro-Thr-Gln-Phe-Cys]-asp-NH2]", "values": [
      {"measurement": "pIC50 Category (FACS)", "setting": "[1]", "result": "> 8", "unit": "pIC50"}
    ]},
    {"binder": "Hexanoyl-CPPTQFCD-NH2 (linker 1-7 via 3Lut)", "note": "[Hex-[Cys(3Lut)-Pro-Pro-Thr-Gln-Phe-Cys]-Asp-NH2]", "values": [
      {"measurement": "pIC50 Category (FACS)", "setting": "[1]", "result": "> 8", "unit": "pIC50"}
    ]},
    {"binder": "Hexanoyl-CPPTQFCD-NH2 (linker 1-7 via mXylylene; SMILES CCCCCC(=O)N[C@H]1CSCc2cccc(c2)CSC[C@@H](C(=O)N[C@@H](CC(=O)O)C(N)=O)NC(=O)[C@H](Cc2ccccc2)NC(=O)[C@H](CCC(N)=O)NC(=O)[C@H]([C@@H](C)O)NC(=O)[C@@H]2CCCN2C(=O)[C@@H]2CCCN2C1=O)", "note": "[Hex-[Cys(3MeBn)-Pro-Pro-Thr-Gln-Phe-Cys]-Asp-NH2]", "values": [
      {"measurement": "pIC50 Category (FACS)", "setting": "[1]", "result": "> 8", "unit": "pIC50"}
    ]},
    {"binder": "Hexanoyl-CPPTQFCD (linker 1-7 via mXylylene; not fully specified (C-terminus); printed as Hex-[Cys(3MeBn)-Pro-Pro-Thr-Gln-Phe-Cys]-Asp-Ttds-Ape(DOTA))", "note": "[Hex-[Cys(3MeBn)-Pro-Pro-Thr-Gln-Phe-Cys]-Asp-Ttds-Ape-NH-DOTA']", "values": [
      {"measurement": "pIC50 Category (FACS)", "setting": "[1]", "result": "> 8", "unit": "pIC50"}
    ]},
    {"binder": "Hexanoyl-CPPTQFCS-OH (linker 1-7 via tMeBn(DOTA-AET))", "note": "[Hex-[Cys(tMeBn(DOTA-AET))-Pro-Pro-Thr-Gln-Phe-Cys]-Ser-OH]", "values": [
      {"measurement": "pIC50 Category (FACS)", "setting": "[1]", "result": "> 8", "unit": "pIC50"}
    ]},
    {"binder": "Pentanesulfonyl-CPPTQFCD-NH2 (linker 1-7 via mXylylene; SMILES CCCCCS(=O)(=O)N[C@H]1CSCc2cccc(c2)CSC[C@@H](C(=O)N[C@@H](CC(=O)O)C(N)=O)NC(=O)[C@H](Cc2ccccc2)NC(=O)[C@H](CCC(N)=O)NC(=O)[C@H]([C@@H](C)O)NC(=O)[C@@H]2CCCN2C(=O)[C@@H]2CCCN2C1=O)", "note": "[Pentyl-SO2-[Cys(3MeBn)-Pro-Pro-Thr-Gln-Phe-Cys]-Asp-NH2]", "values": [
      {"measurement": "pIC50 Category (FACS)", "setting": "[1]", "result": "> 8", "unit": "pIC50"}
    ]},
    {"binder": "Hexanoyl-CPPTQFCD-NH2 (linker 1-7 via tMeBn(DOTA-PP))", "note": "[Hex-[Cys(tMeBn(DOTA-PP))-Pro-Pro-Thr-Gln-Phe-Cys]-Asp-NH2]", "values": [
      {"measurement": "pIC50 Category (FACS)", "setting": "[1]", "result": "> 8", "unit": "pIC50"}
    ]},
    {"binder": "Pentanesulfonyl-CPPTQFCD-NH2 (linker 1-7 via tMeBn(DOTA-PP))", "note": "[Pentyl-SO2-[Cys(tMeBn(DOTA-PP))-Pro-Pro-Thr-Gln-Phe-Cys]-Asp-NH2]", "values": [
      {"measurement": "pIC50 Category (FACS)", "setting": "[1]", "result": "> 8", "unit": "pIC50"}
    ]},
    {"binder": "Hexanoyl-CPPTEFCDHFRD-NH2 (linker 1-7 via mXylylene; SMILES CCCCCC(=O)N[C@H]1CSCc2cccc(c2)CSC[C@@H](C(=O)N[C@@H](CC(=O)O)C(=O)N[C@@H](Cc2c[nH]cn2)C(=O)N[C@@H](Cc2ccccc2)C(=O)N[C@@H](CCCNC(=N)N)C(=O)N[C@@H](CC(=O)O)C(N)=O)NC(=O)[C@H](Cc2ccccc2)NC(=O)[C@H](CCC(=O)O)NC(=O)[C@H]([C@@H](C)O)NC(=O)[C@@H]2CCCN2C(=O)[C@@H]2CCCN2C1=O)", "note": "[Hex-[Cys(3MeBn)-Pro-Pro-Thr-Glu-Phe-Cys]-Asp-His-Phe-Arg-Asp-NH2]", "values": [
      {"measurement": "pIC50 Category (FACS)", "setting": "[1]", "result": "> 8", "unit": "pIC50"}
    ]},
    {"binder": "Hexanoyl-CPPTAFC-NH2 (linker 1-7 via mXylylene; SMILES CCCCCC(=O)N[C@H]1CSCc2cccc(c2)CSC[C@@H](C(N)=O)NC(=O)[C@H](Cc2ccccc2)NC(=O)[C@H](C)NC(=O)[C@H]([C@@H](C)O)NC(=O)[C@@H]2CCCN2C(=O)[C@@H]2CCCN2C1=O)", "note": "[Hex-[Cys(3MeBn)-Pro-Pro-Thr-Ala-Phe-Cys]-NH2]", "values": [
      {"measurement": "pIC50 Category (FACS)", "setting": "[2]", "result": "≤ 6", "unit": "pIC50"}
    ]},
    {"binder": "Ac-CPPTEFCDHFRD-NH2 (linker 1-7 via mXylylene; SMILES CC(=O)N[C@H]1CSCc2cccc(c2)CSC[C@@H](C(=O)N[C@@H](CC(=O)O)C(=O)N[C@@H](Cc2c[nH]cn2)C(=O)N[C@@H](Cc2ccccc2)C(=O)N[C@@H](CCCNC(=N)N)C(=O)N[C@@H](CC(=O)O)C(N)=O)NC(=O)[C@H](Cc2ccccc2)NC(=O)[C@H](CCC(=O)O)NC(=O)[C@H]([C@@H](C)O)NC(=O)[C@@H]2CCCN2C(=O)[C@@H]2CCCN2C1=O)", "note": "[Ac-[Cys(3MeBn)-Pro-Pro-Thr-Glu-Phe-Cys]-Asp-His-Phe-Arg-Asp-NH2]", "values": [
      {"measurement": "pIC50 Category (FACS)", "setting": "[1]", "result": "> 8", "unit": "pIC50"}
    ]},
    {"binder": "Hexanoyl-CPPTQFCD-NH2 (linker 1-7 via tMeBn(EuDOTA-PP); also: Eu-DOTA complex)", "note": "[Hex-[Cys(tMeBn(EuDOTA-PP))-Pro-Pro-Thr-Gln-Phe-Cys]-Asp-NH2]", "values": [
      {"measurement": "pIC50 Category (FACS)", "setting": "[1]", "result": "> 8", "unit": "pIC50"}
    ]},
    {"binder": "Pentanesulfonyl-CPPTEFC-OH (linker 1-7 via tMeBn(DOTA-AET))", "note": "[Pentyl-SO2-[Cys(tMeBn(DOTA-AET))-Pro-Pro-Thr-Glu-Phe-Cys]-OH]", "values": [
      {"measurement": "pIC50 Category (FACS)", "setting": "[1]", "result": "> 8", "unit": "pIC50"}
    ]},
    {"binder": "Hexanoyl-CPPTQFCD-OH (linker 1-7 via tMeBn(DOTA-AET))", "note": "[Hex-[Cys(tMeBn(DOTA-AET))-Pro-Pro-Thr-Gln-Phe-Cys]-Asp-OH]", "values": [
      {"measurement": "pIC50 Category (FACS)", "setting": "[1]", "result": "> 8", "unit": "pIC50"}
    ]}
  ]
}
